In patent publication US6471689B1, “Implantable drug delivery catheter system with capillary interface” (Thomas Jefferson University, priority 1999, dated 2002):

Assay: Human insulin infusion via implanted drug delivery catheter system (DDCS) in rats, plasma insulin and glucose versus time
Type: in vivo
Details: for Time at which blood insulin levels peaked post infusion: human insulin 10 milliU/kg/min, 20 weeks post implantation
Excerpt: The devices were implanted in 4 rats weighing ˜350 gm. Each animal was implanted with 2 devices: a mesenteric DDCS, implanted within the loose connective tissue of the bowel mesentery, and a subcutaneous DDCS implanted in the dorsal subcutaneous loose connective tissue. Catheters were primed with saline and proximal ends sealed. Catheters were then coiled and secured within the abdominal and subcutaneous spaces, respectively. There were no perioperative surgical complications and all 4 animals increased to a mean weight of 592±83 gm by 20 weeks.
The proximal portion of the catheters was exteriorized at 20-weeks post implantation and human insulin infusions were started at 10 milliU/kg/min with infusion rates of 60 μL/hr after careful determination of catheter dead space volume. Two animals were randomly assigned to receive insulin via mesenteric DDCS and two animals received infusions via subcutaneous DDCS. When the infusion was terminated, depth of anesthesia was increased and DDCS and surrounding tissue were explanted and immediately immersed in 10% buffered formalin for histological analysis. Tissue specimens were embedded in paraffin and 7-10 microns sections were prepared for H and E stains.

insulin
Time at which blood insulin levels peaked post infusion (mesenteric DDCS): ≤ 5 min | Blood glucose concentrations during insulin infusion (mesenteric and subcutaneous DDCS, 10 milliU/kg/min, measured at 5, 15, 30 min, not fasted, isoflurane anesthesia): decreased in proportion to increasing insulin concentrations | Time at which blood insulin levels peaked post infusion (subcutaneous DDCS): ≤ 5 min
